Source: patent US20120171209A1 (Ablynx, published 2012)

T1: cyno IL-6R on CHO-K1 cells, clone CyIL6R 405 (cynomolgus monkey (extracellular domain), UniProt A0A2K5WN54 60-499)
T1 construct: whole, on cells; chimeric construct on cells; also called CHO K1-cynomolgous IL-6R
T1 sequence: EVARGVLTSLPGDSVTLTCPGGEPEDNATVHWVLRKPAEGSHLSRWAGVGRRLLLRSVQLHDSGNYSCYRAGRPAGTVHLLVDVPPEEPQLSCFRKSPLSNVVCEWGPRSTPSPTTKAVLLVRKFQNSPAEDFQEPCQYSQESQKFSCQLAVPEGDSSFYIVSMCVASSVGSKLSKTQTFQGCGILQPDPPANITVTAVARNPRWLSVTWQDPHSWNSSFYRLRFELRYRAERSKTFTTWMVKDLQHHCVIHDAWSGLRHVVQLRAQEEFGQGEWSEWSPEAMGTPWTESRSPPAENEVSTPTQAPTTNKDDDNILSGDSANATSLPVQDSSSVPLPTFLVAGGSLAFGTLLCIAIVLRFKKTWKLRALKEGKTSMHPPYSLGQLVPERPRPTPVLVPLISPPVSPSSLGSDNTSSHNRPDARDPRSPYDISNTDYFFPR

T2: human soluble IL-6R, recombinant (human, UniProt P08887 20-358)
T2 construct: also called human IL6-R; bio-IL-6R
T2 sequence (looked up): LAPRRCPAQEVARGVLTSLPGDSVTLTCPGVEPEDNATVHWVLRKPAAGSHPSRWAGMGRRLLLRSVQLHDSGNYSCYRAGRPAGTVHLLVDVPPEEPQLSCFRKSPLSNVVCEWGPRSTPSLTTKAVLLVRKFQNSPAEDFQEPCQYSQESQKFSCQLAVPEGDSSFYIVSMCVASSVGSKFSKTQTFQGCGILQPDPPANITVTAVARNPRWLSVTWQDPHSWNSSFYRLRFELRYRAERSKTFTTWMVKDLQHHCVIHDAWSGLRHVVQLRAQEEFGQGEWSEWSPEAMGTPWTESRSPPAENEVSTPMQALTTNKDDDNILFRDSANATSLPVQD

T3: hybrid IL-6R (human, with rat sequence in domain I)
T3 construct: produced in HEK.EBNA cells and purified
T3 chain: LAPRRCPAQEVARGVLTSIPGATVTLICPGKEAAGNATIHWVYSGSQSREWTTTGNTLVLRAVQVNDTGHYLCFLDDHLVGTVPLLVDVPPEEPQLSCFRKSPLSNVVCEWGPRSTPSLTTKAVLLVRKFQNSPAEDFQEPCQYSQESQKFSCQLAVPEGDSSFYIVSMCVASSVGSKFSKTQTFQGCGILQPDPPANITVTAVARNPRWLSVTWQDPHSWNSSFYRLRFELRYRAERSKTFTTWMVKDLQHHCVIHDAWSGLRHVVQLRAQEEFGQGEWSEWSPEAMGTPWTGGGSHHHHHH


What was measured:
[1] = molecular target: T1, cyno IL-6R on CHO-K1 cells, clone …; assay: FMAT on CHO cells, competitor labelled Reference IgG
Procedure: Eleven inhibitory Nanobodies were tested in competition with labelled Reference IgG for binding to
CHO cells expressing hIL-6R or cynoIL-6R.

[2] = molecular target: IL-6R on the surface of TF-1 cells (UniProt P08887); assay: cell-based or functional assay
Sequence of IL-6R on the surface of TF-1 cells (P08887 20-468 limits assumed): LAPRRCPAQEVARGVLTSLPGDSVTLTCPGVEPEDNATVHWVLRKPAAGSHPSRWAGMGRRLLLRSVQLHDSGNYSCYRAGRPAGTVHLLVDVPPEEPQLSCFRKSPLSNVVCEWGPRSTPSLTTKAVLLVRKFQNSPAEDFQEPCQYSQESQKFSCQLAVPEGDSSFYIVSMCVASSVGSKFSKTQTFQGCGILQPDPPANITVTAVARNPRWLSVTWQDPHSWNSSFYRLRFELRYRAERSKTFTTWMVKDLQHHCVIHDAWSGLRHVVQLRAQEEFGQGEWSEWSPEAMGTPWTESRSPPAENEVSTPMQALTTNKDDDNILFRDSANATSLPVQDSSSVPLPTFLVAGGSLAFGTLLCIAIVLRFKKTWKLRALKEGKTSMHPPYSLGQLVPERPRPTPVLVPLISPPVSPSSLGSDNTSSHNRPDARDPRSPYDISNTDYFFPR

[3] = molecular target: T2, human soluble IL-6R, recombinant; assay: Biacore, periplasmic extract
Procedure: Periplasmic extracts of representative family clones were also analyzed on Biacore. Dissociation curves were used to calculate koff rates. koff rates are depicted in Table C-6.

[4] = molecular target: cynomolgus IL-6R used in Biacore (cynomolgus monkey); assay: Biacore, periplasmic extract
hybrid IL-6R = molecular target: T3, hybrid IL-6R; assay: sandwich ELISA, coated hybrid IL-6R, anti-myc-HRP detection
Procedure: The panel of purified Nanobodies was tested by standard sandwich ELISA with coated human IL-6R versus hybrid IL-6R (see Example 3). Anti-myc-horseradish peroxidase (AbD Serotec, Oxford, UK) was used as a detection antibody. Only Nanobodies with koff rates that were low enough to give a positive signal towards human IL-6R are depicted.

[5] = molecular target: cynomolgus soluble IL-6R, native, in cynomolgous plasma (cynomolgus monkey); assay: ELISA 2, cyno plasma sIL-6R, periplasmic extract, competitor IL-6

| IC50 [1] | IC50, IL-6-dependent proliferation of TF-1 cells [2] | koff [3] | koff [4] | binding result (hybrid IL-6R) | OD450 ratio sample/blank [5] | Binder |
| --- | --- | --- | --- | --- | --- | --- |
| 30 nM | 15.6 nM | 0.001 s⁻¹ | 0.001 s⁻¹ | – | – | IL6RPMP103C4 (VHH, family 19; also called IL6R103C4) VHH: EVQLVESGGGLVEAGGSLRLSCAAAGRTLSSYSMAWFRQAPGKEREFVAIIRGNPSRTYHSDSVKGRFTASRDNAKNTVYLQMNRLEPEDTAVYYCAADPPPFASDYSAPQSYDYWGQGTQVTVSS |
| – | – | 0.00075 s⁻¹ | 0.00045 s⁻¹ | no binding | – | IL6RPMP104E4 (VHH, family 8; also called PMP104E04; IL6R104E4) VHH: EVQLVESGGGTVQAGGSLKLSCAASGRTFTNYAMGWFRQAPGKEREFVAAIAYATHFADSVKGRFTISRGNAKNTVYLQMNSLKPEDTAVYYCAADLSLSKMVSKITSDMDYWGKGTLVTVSS |
| – | – | 0.0001 s⁻¹ | – | – | 0.6 | IL6RPMP107H2 (VHH, family 27; also called IL6R107H2) VHH: KVQLVESGGGLVQPGGSLRLSCAASGFTFSSYAMSWVRRAPGKGLEWVSAINSDGTGSSYAPFVTGRFTASRDNAKNTLYLQMNSLKPEDTAVYYCTNSNRYDYADFSAVRGQGTQVTVSS |
| – | 4.05 nM | 0.00075 s⁻¹ | 0.01 s⁻¹ | – | – | IL6RPMP107A1 (VHH, also called IL6R107A1) VHH: EVQLVESGGGLVQAGGSLNLSCNASGDIGSINAMGWYRQAPGQQREWVAVITDTDSTIYPDSVKGRFAISRDGAKNTVHLRMSSLKPEDTAVYYCNAYQAGWGDYWGQGTQVTVSS |
| 27 nM | 5.59 nM | – | – | – | – | IL6RPMP120A5 (VHH, family 28; also called IL6R120A5) VHH: EVQLVESGGGLVQAGGSLSLSCATSGRTISDDTMAWFRQAPGKEREFVAIITFNGARTHYSDSVRDRFTISRDNAKNTVYLQMNSLKSEDTAVYYCAASTKYYSSTYNYIHPAFYDIWGQGTQVTVSS |
| 75 nM | 61.3 nM | – | – | – | – | IL6RPMP103C7 (VHH, family 28) VHH: EVQLVESGGGLVQAGGSLSLSCATSGRTISDDTMAWFRQAPGKEREFVATITFSGARTHYSDSVRDRFTISRDNAKNTVYLQMDSLKSEDTAVYYCAASTKYYSSTYNYIHPAFYDIWGQGTQVTVSS |
| – | 1470 nM | 0.01 s⁻¹ | 0.01 s⁻¹ | – | – | IL6RPMP103H9 (VHH, family 13; also called PMP103H09; IL6R103H9) VHH: EVQLVESGGGLVQPGGSLRLSCAASKSIFDINAMYWHRQAPGKQRESVASITSGGMRNYADSVKDRFTISKDNAKNTVYLQMNGLKPDDTAVYYCGLGRYEGGVWRDYWGQGTQVTVSS |
| – | 0.149 nM | 0.0001 s⁻¹ | 0.001 s⁻¹ | – | – | IL6RPMP108E1 (VHH, family 20; also called PMP108E01) VHH: EVQLVESGGGLVQAGGSLRLSCAASGFTFDDYDIGWFRQAPGKEREGVSGISSSDGNTYYADSVKGRFTISSDNAKNTVYLQMNSLKPEDTAVYYCAAEPPDSSWYLDGSPEFFKYWGQGTQVTVSS |
| – | – | – | – | no binding | – | IL6RPMP101B12 (VHH, family 2; also called IL6R101B12) VHH: EVQLVESGGGLVQPGGSLRLSCAASGVTLDYYAIGWFRQAPGKEREGVSSISSNDGSTFYADSVKGRFTISRDKAKNTVYLQMNSLKPEDTAVYYCAATYLTAQAVGVPVAYYEFDYWGQGTQVTVSS |
| 0.8 nM | – | – | – | – | – | reference Fab (Fab, V domains shown, expressed in the periplasm of E. coli) VH: QVQLQESGPGLVRPSQTLSLTCTVSGYSITSDHAWSWVRQPPGRGLEWIGYISYSGITTYNPSLKSRVTMLRDTSKNQFSLRLSSVTAADTAVYYCARSLARTTAMDYWGQGSLVTVSS VL: DIQMTQSPSSLSASVGDRVTITCRASQDISSYLNWYQQKPGKAPKLLIYYTSRLHSGVPSRFSGSGSGTDFTFTISSLQPEDIATYYCQQGNTLPYTFGQGTKVEIKR |
| – | 349 nM | 0.01 s⁻¹ | 0.01 s⁻¹ | – | – | IL6RPMP107A9 (VHH, family 21; also called IL6R107A9) VHH: EVQLVESGGGLVQAGGSLRLSCAASGGIFSDMFMGWFRQAPGKSRESVARISPSGNTFYQDSVRGRFTISTDNAKNTVYLQMNNLKPEDTAVYYCAANVGVTGSYEYWGQGTQVTVSS |
| 13 nM | 6.2 nM | 0.00041 s⁻¹ | 0.001 s⁻¹ | – | – | IL6RPMP105E1 (VHH, family 7; also called PMP105E01; IL6R105E1) VHH: EVQLVESGGGLVQAGGSLRLSCAASGSIFSIKAMGWYRQAPGKQRELVARITSGGSTYYADSVKGRFTISRDNAKNTVYLQMNSLKPEDTAVFYCNAIVTDSDYDLGNDYWGQGTQVTVSS |
